Molecular target: truncated NpSRII/NpHtrII137 complex (Natronomonas pharaonis) (UniProt P42196)
Assay: SAXS; detergent-solubilised (DDM) complex, peak fractions after gel filtration; low salt (150 mM NaCl); 0.57 mg/ml full-length and 0.78 mg/ml truncated complex; BM29 (ESRF); curves fitted with atomistic dimer models with a detergent belt (MEMPROT, CRYSOL3)

Chain of truncated NpSRII/NpHtrII137 complex (P42196 whole entry, the tested form may be a part): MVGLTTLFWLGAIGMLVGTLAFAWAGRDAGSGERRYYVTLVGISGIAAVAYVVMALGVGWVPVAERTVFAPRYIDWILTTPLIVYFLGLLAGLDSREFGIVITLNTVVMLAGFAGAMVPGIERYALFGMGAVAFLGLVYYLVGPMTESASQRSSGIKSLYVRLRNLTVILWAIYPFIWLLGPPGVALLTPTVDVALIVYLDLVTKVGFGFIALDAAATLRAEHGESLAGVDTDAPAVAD
Chain of truncated NpSRII/NpHtrII137 complex (P42259 1-136): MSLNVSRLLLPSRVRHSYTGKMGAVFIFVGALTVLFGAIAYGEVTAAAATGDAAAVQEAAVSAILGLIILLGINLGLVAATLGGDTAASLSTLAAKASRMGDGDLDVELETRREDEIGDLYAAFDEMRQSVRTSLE

- stoichiometry N: 2
Substance: truncated NpSRII/NpHtrII137 complex (from UniProt P42196 1-239; P42259 1-136)
